{
  "source": "paper PMC5021511",
  "about": "(Methods in cell biology, 2016)",
  "biological_target": "the molecule itself",
  "assay": "FRET or BRET",
  "data": [
    {"protein": "Cdc11(E294C)-capped and otherwise Cys-less septin heterooctamer, labeled with AF555-maleimide (donor) or AF647-maleimide (acceptor) (complex, S. cerevisiae, Alexa Fluor 555 maleimide (donor batch) or Alexa Fluor 647 maleimide (acceptor batch) on C294) chain 1: MSGIIDASSALRKRKHLKRGITFTVMIVGQSGSGRSTFINTLFGQQVVDTSTTILLPTDTSTEIDLQLREETVELEDDEGVKIQLNIIDTPGFGDSLDNSPSFEIISDYIRHQYDEILLEESRVRRNPRFKDGRVHAALYLINPTGHGLKEIDVEFIRQLGSLVNIIPVISKSDSLTRDELKLNKKLIMEDIDRWNLPIYNFPFDEDEISDEDYETNMYLRTLLPFAIIGSNEVYEMGGDVGTIRGRKYPWGILDVEDSSISDFVILRNALLISHLHDLKNYTHEILYERYRTCALSGESVAAESIRPNLTKLNGSSSSSTTTRRNTNPFKQSNNINNDVLNPASDMHGQSTGENNETYMTREEQIRLEEERLKAFEERVQQELLLKRQELLQREKELREIEARLEKEAKIKQEE chain 2: MSAATATAAPVPPPVGISNLPNQRYKIVNEEGGTFTVMLAGESGLGKTTFINTLFQTVLKRADGQQHRQEPIRKTVEIDITRALLEEKHFELRVNVIDTPGFGDNVNNNKAWQPLVDFIDDQHDSYMRQEQQPYRTKKFDLRVHAVLYFIRPTGHGLKPIDIETMKRLSTRANLIPVIAKADTLTAQELQQFKSRIRQVIEAQEIRIFTPPLDADSKEDAKSGSNPDSAAVEHARQLIEAMPFAIVGSEKKFDNGQGTQVVARKYPWGLVEIENDSHSDFRKLRALLLRTYLLDLISTTQEMHYETYRRLRLEGHENTGEGNEDFTLPAIAPARKLSHNPRYKEEENALKKYFTDQVKAEEQRFRQWEQNIVNERIRLNGDLEEIQGKVKKLEEQVKSLQVKKSHLK chain 3: MSLKEEQVSIKQDPEQEERQHDQFNDVQIKQESQDHDGVDSQYTNGTQNDDSERFEAAESDVKVEPGLGMGITSSQSEKGQVLPDQPEIKFIRRQINGYVGFANLPKQWHRRSIKNGFSFNLLVVGPDGIGKTTLMKTLFNNDDIEANLVKDYEEELANDQEEEEGQGEGHENQSQEQRHKVKIKSYESVIEENGVKLNLNVIDTEGFGDFLNNDQKSWDPIIKEIDSRFDQYLDAENKINRHSINDKRIHAVLYFIEPTGHYLKPLDLKFMQSVYEKVNLIPVIAKSDILTDEEILSFKKTIMNQLIQSNIELFKPPIYSNDDAENSHLSERLFSSLPYAVIGSNDIVENYSGNQVRGRSYPWGVIEVDNDNHSDFNLLKNLLIKQFMEELKERTSKILYENYRSSKLAKLGIKQDNSVFKEFDPISKQQEEKTLHEAKLAKLEIEMKTVFQQKVSEKEKKLQKSETELFARHKEMKEKLTKQLKALEDKKKQLELSINSASPNVNHSPVPTKKKGFLR chain 4: MDPLSSVQPASYVGFDTITNQIEHRLLKKGFQFNIMVVGQSGLGKSTLINTLFASHLIDSATGDDISALPVTKTTEMKISTHTLVEDRVRLNINVIDTPGFGDFIDNSKAWEPIVKYIKEQHSQYLRKELTAQRERFITDTRVHAILYFLQPNGKELSRLDVEALKRLTEIANVIPVIGKSDTLTLDERTEFRELIQNEFEKYNFKIYPYDSEELTDEELELNRSVRSIIPFAVVGSENEIEINGETFRGRKTRWSAINVEDINQSDFVYLREFLIRTHLQDLIETTSYIHYEGFRARQLIALKENANSRSSAHMSSNAIQR", "values": [
      {"measurement": "Kd", "value": "24.3 ± 13.7", "unit": "nM"}
    ]}
  ]
}
